“And” between values parts separate entries of the source, which are not always exact repeats. Identical values can stand only once.

This assay addresses full length human histone 3 lysine 4 demethylase KDM5B, His6 tag cleaved (human) (UniProt Q9UGL1). The experiment in a line: SPR; KDM5B immobilised by amine coupling (490 RU and 975 RU); NCPs injected in eight concentrations (two-fold dilutions from 250 nM); 15 °C; 20 mM Hepes, 300 mM NaCl, 1 mM EDTA, 0.005% Tween 20, 1 mM DTT; steady state, 1:1 model; apparent. (In general: In SPR one partner is held on a chip, and binding of the other changes the refractive index at the surface.)
UniProt Q9UGL1, sequence (Q9UGL1 whole entry): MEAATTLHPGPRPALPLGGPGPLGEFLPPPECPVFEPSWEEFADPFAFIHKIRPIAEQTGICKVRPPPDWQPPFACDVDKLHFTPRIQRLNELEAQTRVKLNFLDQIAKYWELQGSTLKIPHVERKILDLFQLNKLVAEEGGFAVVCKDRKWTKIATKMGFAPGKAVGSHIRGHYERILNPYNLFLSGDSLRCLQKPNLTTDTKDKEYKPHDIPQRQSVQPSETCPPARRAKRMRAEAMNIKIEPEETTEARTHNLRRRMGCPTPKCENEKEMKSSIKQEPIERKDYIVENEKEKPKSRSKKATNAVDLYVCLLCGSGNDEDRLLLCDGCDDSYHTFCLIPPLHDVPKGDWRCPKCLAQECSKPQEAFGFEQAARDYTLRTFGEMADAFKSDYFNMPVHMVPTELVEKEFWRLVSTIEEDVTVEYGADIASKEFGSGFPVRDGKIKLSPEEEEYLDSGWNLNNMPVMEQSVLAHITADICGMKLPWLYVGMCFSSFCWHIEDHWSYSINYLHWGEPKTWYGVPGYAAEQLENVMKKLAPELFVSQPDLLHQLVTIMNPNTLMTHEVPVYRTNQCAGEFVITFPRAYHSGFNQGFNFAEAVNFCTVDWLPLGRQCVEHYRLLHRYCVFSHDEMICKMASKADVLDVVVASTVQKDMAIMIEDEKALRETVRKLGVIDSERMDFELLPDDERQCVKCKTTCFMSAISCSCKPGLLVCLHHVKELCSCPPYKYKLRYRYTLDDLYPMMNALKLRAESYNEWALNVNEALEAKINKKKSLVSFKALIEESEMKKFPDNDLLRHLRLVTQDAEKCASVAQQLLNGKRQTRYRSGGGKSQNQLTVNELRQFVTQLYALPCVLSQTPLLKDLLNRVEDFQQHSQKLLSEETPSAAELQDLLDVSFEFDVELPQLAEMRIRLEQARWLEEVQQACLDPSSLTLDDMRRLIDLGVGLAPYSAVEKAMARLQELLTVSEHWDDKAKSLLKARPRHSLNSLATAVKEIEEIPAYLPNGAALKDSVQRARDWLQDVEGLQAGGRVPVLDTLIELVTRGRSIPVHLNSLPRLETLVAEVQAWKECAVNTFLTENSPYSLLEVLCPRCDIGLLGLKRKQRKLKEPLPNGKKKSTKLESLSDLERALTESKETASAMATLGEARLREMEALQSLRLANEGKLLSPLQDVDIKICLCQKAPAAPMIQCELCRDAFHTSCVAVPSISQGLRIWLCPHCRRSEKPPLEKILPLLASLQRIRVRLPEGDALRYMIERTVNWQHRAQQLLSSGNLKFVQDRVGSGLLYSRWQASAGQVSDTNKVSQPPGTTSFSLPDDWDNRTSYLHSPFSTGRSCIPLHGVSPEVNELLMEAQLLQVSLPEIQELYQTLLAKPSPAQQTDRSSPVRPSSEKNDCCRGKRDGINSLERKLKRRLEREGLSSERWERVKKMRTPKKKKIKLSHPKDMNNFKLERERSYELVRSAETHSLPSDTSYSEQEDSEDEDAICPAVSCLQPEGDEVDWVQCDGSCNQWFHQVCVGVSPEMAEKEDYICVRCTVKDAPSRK

Turning to “Nucleosome core particles (NCPs), recombinant Xenopus laevis histone octamer on the Widom 601 DNA (complex)”, the Kd is 20.3 nM and 27.7 nM.

The values above are taken from publication PMC6411775.
